# Laboratory results taken from patent US20220356259A1.
# Legend:
# [1] = target: fusion protein in which the extracellular domain of Cynomolgus monkey GITR is fused with the domain of mouse IgG1-Fc (Cynomolgus monkey); experiment: ELISA, cynoGITR-muFc coated at 5 ug/ml, anti-human IgG-HRP (FIG. 8)
# [2] = target: fusion protein in which the extracellular domain of Cynomolgus monkey GITR is fused with the domain of mouse IgG1-Fc (Cynomolgus monkey); experiment: ELISA, cynoGITR-muFc coated at 5 ug/ml, anti-human IgG-HRP (FIG. 7)
# Sequence of fusion protein in which the extracellular domain of Cynomolgus monkey GITR is fused with the domain of mouse IgG1-Fc (Cynomolgus monkey) (chain, as listed by the source limits assumed, form in doubt): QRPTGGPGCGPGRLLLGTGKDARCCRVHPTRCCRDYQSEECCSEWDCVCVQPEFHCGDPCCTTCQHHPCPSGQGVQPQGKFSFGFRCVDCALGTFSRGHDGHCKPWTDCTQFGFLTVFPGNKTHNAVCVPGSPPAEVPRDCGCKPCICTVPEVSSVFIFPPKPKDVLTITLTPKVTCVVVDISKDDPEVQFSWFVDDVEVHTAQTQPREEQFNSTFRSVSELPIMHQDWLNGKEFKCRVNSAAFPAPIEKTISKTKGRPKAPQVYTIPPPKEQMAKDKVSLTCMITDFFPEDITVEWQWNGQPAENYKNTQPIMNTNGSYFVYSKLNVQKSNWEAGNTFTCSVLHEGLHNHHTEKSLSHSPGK
EC50 [1],EC50 [2],Binder
0.0747 µg/mL,0.0704 µg/mL,"isolated antigen-binding protein C3E2 (antibody, human IgG1, kappa, V domains shown) VH: QVQLQESGPGILQPSQTLSLTCSFSGFSLSTFGMGVGWIRQPSGKGLEWLVLILWNDIKYYNPALKSLLTVSKDTSNNQVFLKIASVDTADTATYYCARVDGYYGYFDVWGTGTTVTVSS VL: DIVMTQSPLSLPVSLGDQASISCRSSQTIVHSNGNTYLEWYLQKPGQSPKLLIYKVSNRFSGVPDRFSGSGSGTDFTLKISRVEAEDLGVYYCFQGSHVPWTFGGGTKLEIKR"
,0.0517 µg/mL,"isolated antigen-binding protein 3E2 1-2 (antibody, human IgG1, kappa, V domains shown) VH: QVTLQESGPTLVKPTQTLTLTCTFSGFSLSTFGMGVGWIRQPPGKGLEWLVLILWNDIKYYNPALKSLLTVTKDTSKNQVVLTITNMDPVDTATYYCARVDGYYGYFDVWGQGTMVTVSS VL: DIVMTQSPLSLPVTLGQPASISCRSSQTIVHSNGNTYLEWYLQRPGQSPKLLIYKVSNRFSGVPDRFSGSGSGTDFTLKISRVEAEDVGVYYCFQGSHVPWTFGGGTKVEIKR"
